Data taken from patent US20260176352A1 (BIRD ROCK BIO, published 2026).

What was measured:
[1] = molecular target: T1, native full length human CB1 receptor (cannabinoid 1 receptor) (human, UniProt P21554 1-472); assay: flow cytometry on CB1-expressing cells after 48 h in human serum at 37 C
T1 construct: whole, on cells; also called A156; Native human CB1 TRex CHO A156
Procedure: (§1) Human serum was obtained from Sigma. Non-Human Primate serum was collected by Crown Bioscience. In an Eppendorf tube, 950 μL serum was mixed with 50 μL IgG at final conc. […] Samples of 200 μL were taken at time points 0, 24, 48, and 72 hours for flow cytometry binding assay using CB1-expressing cells.

[2] = molecular target: T1, native full length human CB1 receptor …; assay: flow cytometry, TRex-CHO human CB1 cells; mean ± SD
Procedure: (§2) TRex CHO parental cells, and TRex-CHO cells stably transfected with tetracycline inducible human CB1, human CB2 or mouse CB1 expression constructs were harvested. […] Cells were then centrifuged at 4° C. at 1600 rpm for 3 minutes; supernatant was aspirated and cells were washed with 200 μL FACS buffer. The washing procedure was repeated twice. After the final wash, cells were re-suspended in FACS buffer containing PE-conjugated anti-human Fc secondary antibody (1:200 dilutions) and incubated at 4° C. for 30 minutes. Cells were washed with 200 μL FACS buffer twice and analyzed by flow cytometry (Guava). Data analysis and measurement of binding affinity (KD) was performed using GraphPad Prism software.

human CB2 = molecular target: T2, human CB2 (human, UniProt P34972 1-360); assay: flow cytometry on TRex-CHO cells stably transfected with human CB2, PE-conjugated anti-human Fc secondary antibody
T2 construct: whole, on cells; also called TRexCHO Human CB2
T2 sequence (P34972 whole entry): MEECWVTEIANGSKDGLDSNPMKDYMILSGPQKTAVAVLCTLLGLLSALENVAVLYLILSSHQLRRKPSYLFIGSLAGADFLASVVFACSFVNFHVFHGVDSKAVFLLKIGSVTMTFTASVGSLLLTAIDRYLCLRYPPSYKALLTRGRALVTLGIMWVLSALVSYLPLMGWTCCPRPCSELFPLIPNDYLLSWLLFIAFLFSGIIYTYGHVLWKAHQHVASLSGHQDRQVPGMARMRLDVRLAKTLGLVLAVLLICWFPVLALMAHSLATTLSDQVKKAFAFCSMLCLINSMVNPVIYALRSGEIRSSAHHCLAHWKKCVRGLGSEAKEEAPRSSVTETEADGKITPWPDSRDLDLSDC
Procedure: (§3) Cells were then centrifuged at 4° C. at 1600 rpm for 3 minutes; supernatant was aspirated and cells were washed with 200 μL FACS buffer. The washing procedure was repeated twice. After the final wash, cells were re-suspended in FACS buffer containing PE-conjugated anti-human Fc secondary antibody (1:200 dilutions) and incubated at 4° C. for 30 minutes. Cells were washed with 200 μL FACS buffer twice and analyzed by flow cytometry (Guava). Data analysis and measurement of binding affinity (KD) was performed using GraphPad Prism software.
(§4) Specifically, binding selectivity for CB1 over CB2 was determined. Cross reactivity to mouse CB1 was also determined. For detecting expression of mouse CB1, 100 μL of 1×10⁶ cells/mL of cells were incubated with anti-CB1 rabbit polyclonal antibody (Santa Cruz) at 1 μg/100 μL on ice for 30 min. […] 100 μL of 1×10⁶ cells/mL of cells were incubated with anti-CB2 antibody at 0.5 μg/100 μL on ice for 30 minutes. After incubation, cells were then centrifuged at 4° C. at 1600 rpm for 3 minutes; supernatant was aspirated and cells were washed with 200 μL FACS buffer. The procedure was repeated twice. […] Cells were washed with 200 μL FACS buffer twice and analyzed by flow cytometry (Guava). […] Data analysis and measurement of binding affinity (KD) was performed using GraphPad Prism software.

[3] = molecular target: T1, native full length human CB1 receptor …; assay: flow cytometry on CB1-expressing cells after 0 h in NHP serum at 37 C
Procedure: as §1

mouse CB1 = molecular target: T3, mouse CB1 (mouse, UniProt P47746 1-473); assay: flow cytometry on TRex-CHO cells stably transfected with mouse CB1, PE-conjugated anti-human Fc secondary antibody
T3 construct: whole, on cells; also called TRexCHO Mouse CB1
T3 sequence (P47746 whole entry): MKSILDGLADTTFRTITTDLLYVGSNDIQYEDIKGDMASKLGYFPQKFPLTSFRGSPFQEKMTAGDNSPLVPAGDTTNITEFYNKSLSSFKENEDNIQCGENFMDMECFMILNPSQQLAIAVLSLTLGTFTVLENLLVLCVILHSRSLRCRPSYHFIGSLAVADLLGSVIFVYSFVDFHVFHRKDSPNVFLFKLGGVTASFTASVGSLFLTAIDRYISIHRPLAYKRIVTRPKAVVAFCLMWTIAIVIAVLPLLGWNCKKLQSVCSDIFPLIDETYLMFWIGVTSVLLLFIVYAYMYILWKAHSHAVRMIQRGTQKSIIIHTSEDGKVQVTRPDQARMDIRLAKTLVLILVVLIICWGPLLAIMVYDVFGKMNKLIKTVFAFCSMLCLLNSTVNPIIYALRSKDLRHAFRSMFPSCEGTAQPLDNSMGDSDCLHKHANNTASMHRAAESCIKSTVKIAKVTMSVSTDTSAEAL
Procedure: as §3, §4

[4] = molecular target: T1, native full length human CB1 receptor …; assay: flow cytometry, TRex-CHO human CB1 cells; mean of batch 3
Procedure: as §2

[5] = molecular target: T1, native full length human CB1 receptor …; assay: cell-based or functional assay
[6] = molecular target: T1, native full length human CB1 receptor …; assay: cell-based or functional assay; remark: listed apart in the source
[7] = molecular target: T1, native full length human CB1 receptor …; assay: flow cytometry on CB1-expressing cells after 48 h in NHP serum at 37 C
Procedure: as §1

[8] = molecular target: T1, native full length human CB1 receptor …; assay: flow cytometry on TRex-CHO cells with tetracycline inducible human CB1
Procedure: as §2

[9] = molecular target: T1, native full length human CB1 receptor …; assay: flow cytometry on CB1-expressing cells after 72 h in NHP serum at 37 C
Procedure: as §1

[10] = molecular target: T1, native full length human CB1 receptor …; assay: flow cytometry on CB1-expressing cells after 24 h in NHP serum at 37 C
Procedure: as §1

[11] = molecular target: T1, native full length human CB1 receptor …; assay: flow cytometry, TRex-CHO human CB1 cells; mean of batch 2
Procedure: as §2

[12] = molecular target: T1, native full length human CB1 receptor …; assay: cell-based or functional assay; remark: listed apart in the source
[13] = molecular target: T1, native full length human CB1 receptor …; assay: cell-based or functional assay; remark: listed apart in the source
[14] = molecular target: T1, native full length human CB1 receptor …; assay: flow cytometry on CB1-expressing cells after 72 h in human serum at 37 C
Procedure: as §1

[15] = molecular target: T1, native full length human CB1 receptor …; assay: flow cytometry on CB1-expressing cells after 24 h in human serum at 37 C
Procedure: as §1

[16] = molecular target: T1, native full length human CB1 receptor …; assay: flow cytometry, TRex-CHO human CB1 cells; mean of batch 1
Procedure: as §2

[17] = molecular target: T1, native full length human CB1 receptor …; assay: flow cytometry on CB1-expressing cells after 0 h in human serum at 37 C
Procedure: as §1

T1 sequence (P21554 whole entry): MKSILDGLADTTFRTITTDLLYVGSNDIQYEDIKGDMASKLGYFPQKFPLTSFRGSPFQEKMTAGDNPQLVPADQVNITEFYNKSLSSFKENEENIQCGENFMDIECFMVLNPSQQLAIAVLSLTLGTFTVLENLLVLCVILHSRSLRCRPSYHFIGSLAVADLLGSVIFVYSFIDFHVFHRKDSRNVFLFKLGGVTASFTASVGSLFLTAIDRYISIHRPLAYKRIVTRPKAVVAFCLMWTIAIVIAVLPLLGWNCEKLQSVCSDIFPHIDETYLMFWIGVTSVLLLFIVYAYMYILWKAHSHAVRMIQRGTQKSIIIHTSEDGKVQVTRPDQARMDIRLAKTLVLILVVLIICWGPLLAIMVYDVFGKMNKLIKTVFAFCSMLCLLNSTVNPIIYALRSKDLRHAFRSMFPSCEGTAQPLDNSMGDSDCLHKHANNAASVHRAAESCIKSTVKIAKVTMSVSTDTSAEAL

B1: P1C4-H4-IgG4 (antibody)
heavy: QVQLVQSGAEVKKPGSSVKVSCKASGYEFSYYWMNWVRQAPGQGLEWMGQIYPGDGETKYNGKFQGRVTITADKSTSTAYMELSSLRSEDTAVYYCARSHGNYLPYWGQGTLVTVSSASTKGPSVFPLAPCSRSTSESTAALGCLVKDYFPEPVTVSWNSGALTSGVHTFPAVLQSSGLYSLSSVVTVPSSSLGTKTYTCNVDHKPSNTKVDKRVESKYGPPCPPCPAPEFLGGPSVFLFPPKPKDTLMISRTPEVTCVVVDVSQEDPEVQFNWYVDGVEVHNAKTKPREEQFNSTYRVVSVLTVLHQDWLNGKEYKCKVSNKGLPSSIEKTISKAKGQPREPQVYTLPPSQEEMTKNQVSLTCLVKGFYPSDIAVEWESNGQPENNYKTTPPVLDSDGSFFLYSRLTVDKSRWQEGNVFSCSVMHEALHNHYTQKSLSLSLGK
light: EIVLTQSPATLSLSPGERATLSCRASQSVSSSYLHWYQQKPGQAPRLLIYSTSNLASGIPARFSGSGSGTDFTLTISRLEPEDFAVYYCHQYHRSPPTFGQGTKVEIKRTVAAPSVFIFPPSDEQLKSGTASVVCLLNNFYPREAKVQWKVDNALQSGNSQESVTEQDSKDSTYSLSSTLTLSKADYEKHKVYACEVTHQGLSSPVTKSFNRGEC
B1 was tested, and the Kd [1] was 12 nM, the Kd [2] was 49 nM and the binding result (human CB2) was “no binding (tested: 1000 nM)”. The Kd [3] was 20 nM, the binding result (mouse CB1) was “no binding (tested: 1000 nM)” and the Kd [4] was 49 nM. For the same binder, the “cAMP IC50 (nM) after 33 days at 4 C” value [5] was 62 nM, the “cAMP IC50 (nM) after 33 days at 40 C” value [5] was 71 nM and the “cAMP IC50 (nM) after 5 freeze/thaw cycles” value [6] was 32 nM. For the same binder, the Kd [7] was 28 nM, the “EC50 (read off the curve)” value [8] was about 30 nM and the Kd [9] was 26 nM. For the same binder, the Kd [10] was 13 nM, the Kd [11] was 49 nM and the “cAMP IC50 (nM) after dialysis to pH 3 and 48 h at 40 C” value [12] was 139 nM. The “cAMP IC50 (nM) after dialysis to pH 9 and 48 h at 40 C” value [12] was 64 nM, the “cAMP IC50 (nM) CHO-S [n]” value [13] was 51 nM and the “cAMP IC50 (nM) Mean of Batch 1 [n]” value [13] was 54 nM. The “cAMP IC50 (nM) Mean of Batch 2 [n]” value [13] was 54 nM, the Kd [14] was 15 nM and the Kd [15] was 12 nM. The Kd [16] was 51 nM and the Kd [17] was 16 nM.
